Data reported in article doi:10.1101/2020.09.30.318261 (bioRxiv, 2020).

Molecular target: SARS-CoV prefusion stabilised spike ectodomain trimer (SARS-CoV Urbani, stabilised)
Test: cryo-EM structure

B1: 47D11 Fab fragment (Fab, V domains shown)
VH: QVQLQESGPGLVKPSETLSLTCSVSGGSISSHYWSWIRQPPGKGLEWIGYIYYSGSTNHNPSLKSRVTISVDTSKNQFSLKLSSVTAADTAVYYCARGVLLWFGEPIFEIWGQGTMVTVSS
VL: EIVMTQSPATLSVSPGERATLSCRASQSVSSSLAWYQQKPGQAPRLLIYGASTRAPGIPARFSGSGSGTEFTLTISSLQSEDFAVYYCQQYNNWPLTFGGGTKVEI
stoichiometry N: 3 Fab per spike trimer
